Experimental data as given in IntAct's records for PubMed 11100732.

B1: Autophagy-related protein 3 (Saccharomyces cerevisiae), P40344 (parent)
chain: MIRSTLSSWREYLTPITHKSTFLTTGQITPEEFVQAGDYLCHMFPTWKWNEESSDISYRDFLPKNKQFLIIRKVPCDKRAEQCVEVEGPDVIMKGFAEDGDEDDVLEYIGSETEHVQSTPAGGTKDSSIDDIDELIQDMEIKEEDENDDTEEFNAKGGLAKDMAQERYYDLYIAYSTSYRVPKMYIVGFNSNGSPLSPEQMFEDISADYRTKTATIEKLPFYKNSVLSVSIHPCKHANVMKILLDKVRVVRQRRRKELQEEQELDGVGDWEDLQDDIDDSLRVDQYLIVFLKFITSVTPSIQHDYTMEGW
partner: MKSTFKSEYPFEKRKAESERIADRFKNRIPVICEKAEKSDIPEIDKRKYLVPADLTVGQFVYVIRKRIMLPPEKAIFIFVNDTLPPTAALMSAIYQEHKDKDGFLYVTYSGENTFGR

Variants of: B1
Details: with atg8_yeast ATG8, P38182

effect of a mutation on the interaction | Variant
disrupting interaction | C234S
disrupting interaction | C234A
